# From paper PMC12658286
# Key:
# Western blot of PD-L1 = details: glycan lost; control: untreated HepG2 cells
# [1] = Flag-PD-L1 IP with HA-Ub, Western blot; details: glycan gained; control: control-transfected HepG2 (vector / siNC), MG132
Substance,expression_or_secretion (Western blot of PD-L1),other: ubiquitination [1]
"PD-L1: tunicamycin (2 µg/mL, 18 h)",decreases,–
PD-L1: GALNT16 overexpression,–,decreases
